21 sequences from the DeepSol protein solubility set can be followed below.

This series is described as follows: soluble on expression in E. coli; label from the status in PepcDB or PDB records.
On to “MAHHHHHHMEREKHENMLMAIARDFNSVDDLIETFLTFLENKTDYFHVMLNDKDVETLSEKYDGAILKNLLNNNNCGFKAHSREQLLIKSFRKHQINYIMRKQPYIIENEEIKNKYLTSCDELKKIKYMPTTKDMNKEKQENSTKVNSDVHSLNVTQENHISIWNGGKTDKYYWNQALKEINLEMPFNEEIKPNDVNVQITNTNIKIYHCGVLKLEGMFYEEVDKQECVWSIEDKKNIIIYLEKKRENWWPCVIKGDTEIDTKNIESKKNLTDFDEKTQGQIRKFLLEQRMKNEGIPTPEDLRKQNIINNVLSSKGEPFGR”, for which the “soluble on expression in E. coli” value is “not soluble”.

On to “MDLKFKSQETGRSIGFASHLRRHGATLANHLNYTRNEFISTLADCHQNLGIEGRASSPEKQFDEDGDEIEATATKIEWQPLKCPKCHRNSENTRKLLEHLVEDHGRPQDKAWFEQFDTIGTDLKKVFDKAIRIQAENSVVKKKFQNSNDLLVCPTDSPLAPFLLMRHLQVNFQEVSQTLTEGIVLKLQIASTSYTIIFSFHKVDKARRRIKREMARKSLERRLRVLELRCARTWVPDDDVVFKKKRTSEENKALIQALKLPATSSHDDIVLKINEMKTQHDEMVK”, for which the “soluble on expression in E. coli” value is recorded as “not soluble”.

For the sequence “MIHSMTAFSRIQKQFDVGDFCWEIRSVNHRYLDVSFRLPESFRFLEAELRTLLRDKIHRGKLECHLKYKDTSCDNRSMLINIGTINALLDLSSKLSASHHLANDMTVSQVLSWPGVVEANLLDMEELSQIALELFQKSIDKLCEVRAGEGRSLKAYVEDRLQALRQEVMKSKSIVVSMSAKTKDKLLTRLHELQMDVPEARVEQEIALLLAKLDVSEELDRLETHIAEVSRTLNAEKVTGRRLDFLMQELNREANTLSSKSDSAELTLCAVEMKVLIEQMREQIQNFE”, the “soluble on expression in E. coli” value is recorded as “not soluble”.

Regarding “MAAKIPGVIALFDVDGTLTAPRKEATPELLDFIRELRKVVTIGVVGGSDLSKISEQLGKTVTNDYDYCFSENGLVAHKDGKSIGIQSLKLHLGDDKLKELINFTLHYIADLDIPIKRGTFIEFRNGMLNVSPIGRNCSQEERDEFERYDKVQNIRPKMVAELRERFAHLNLTFSIGGQISFDVFPKGWDKTYCLQYLEDFSEIHFFGDKTYEGGNDYEIYESPKTIGHSVTSPDDTVAKCKALFMS”, the “soluble on expression in E. coli” value was “soluble”.

Turning to “MEILEEKPKEGKVKIKVETLDDLWHLYHIITPGDVVYAKTLRKQSQRSDSLRPEKVEVIPVFLGVKVEKINFHKFANQLRVTGPIIYASREDVPLGKYHTIAVEPGTIITLQKERWKPYYIERLKEAVEASKRAKVMIVTIEDGEAEMAIVREYGLDFIATIRHNLGGKRYNIKREDEERKFFHDVAKTMKDVMSRENIQRAIVAGPGFYKEDFYKFLKENYPDLASKIVLDDTSMGGRVGIYEVIKRGTVDKVYSESRIANEIKLVEKVIERIAKDEPVAYGMKEVEEAVNYGAVEILLVLDELLKGDNREKVEELMELARSLRSKVVVVSSEHEGGEKLKALGGIAGILRFKIK”, the “soluble on expression in E. coli” value was “soluble”.

As to “MGSDKIHHHHHHMANSIPSGGNAFALPFAGSRHQFISATCTPDTFSDCLSQSLPPSSNEQAPLGVLRLVVAVSNQKQIGTVLEQLTKDFQALLSRAEVVVQPPFSGQVQISAWLVDTAAIADAPAVIGSPAALQWLFSASNAHALDDTQVSPAFSRQFYDGLESAHAQGHMPDDLLRTWIYIGGITQGPHDETRYQRVNAARQDAFREVSIGMGALCSPFPASTGIGTHGSSLTLGMLSCKIRSGMRVVALENRRQTSAFQYPKEESLIAPLFSRAVAILGDAQAMVFVSGTASIIGAKSVHVGNIEQQTRQTLENINNLLSARLLSDYDCYPATSGLESIVSYTVYIKRREDITVVRAVCAALLPERAVATFVQADVCRTELLVEIEAVAVMPE”, the “soluble on expression in E. coli” value is recorded as “not soluble”.

For “MNDVVLSCKNVSKKYTEFKTDIAILKDVNLEIKKGEKVAILGLSGSGKTTLLNVLGGLDKCSAGEVYLMGERFDNQSVNKRAKMRNKHLGFIYQLHHLLPEFTAIENVMIPLAITKKYTKKESIKLANEILKKVGLDHRADHKPAELSGGERQRVAIARALVTNPNCILADEPTGNLDSQRSESIFALMQQLSDDFGTSFVIVTHDEKLASRMNKIYRLVDGELELVINSN”, the “soluble on expression in E. coli” value is listed as “not soluble”.

Regarding “MGSDKIHHHHHHMDQQKKIQILKDLVNIDSTNGHEEQVANYLQKLLAEHGIESEKVQYDLDRASLVSEIGSSNEKVLAFSGHMDVVDAGDVSKWKFPPFEATEHEGKLYGRGATDMKSGLAAMVIAMIELHEEKQKLNGKIRLLATVGEEIGELGAEQLTQKGYADDLDGLIIGEPSGHRIVYAHKGSINYTVKSTGKNAHSSMPEFGVNAIDNLLLFYNEVEKFVKSIDATNEILGDFIHNVTVIDGGNQVNSIPEKAQLQGNIRSIPEMDNETVKQVLVKIINKLNKQENVNLELIFDYDKQPVFSDKNSDLVHIAKSVASDIVKEEIPLLGISGTTDAAEFTKAKKEFPVIIFGPGNETPHQVNENVSIGNYLEMVDVYKRIATEFLS”, the “soluble on expression in E. coli” value is “not soluble”.

Regarding “MGSDKIHHHHHHMSEQNWTDTGRFDNKAAEWDANAIRAALADAVARAIIAHMPVGKPANALEFGCGTGLVTTRIAPHCLQLTAVDSSREMLRMLGEKIAASAIANVTPLHLDFSRPEEAAGLDRDYDFVYSSMTLHHIPDTASFLRELIGHMSPGGALAIADLDAEDGLFHNDATEKVHHGFDRTELQALLESAGFAGVSFMTAHIIEKKNREGNLKNYPVFLVTAVKPKA”, the “soluble on expression in E. coli” value is “not soluble”.

For the sequence “MAHHHHHHMAQNPWFVKKSKTLRTSQLEKFINKFNEEYEHLMHMTRFKYIKRTLESIKENSDLIINKKTFSILRISCVAQLQPKYLNKIDDGISVYLSNFMLKANHDVEGFCLCFNKIKLKEKESRVMNNDPSIMFVKISFKLLILVLKENYEIKAKINKIEPLKIHLDIFGIVEAIFSEDMFKDFHYDSRNNRFRREGKFFSLYDIVLFTIKKITYGDNGANVKVIGYF”, the “soluble on expression in E. coli” value is on record as “not soluble”.

Regarding “MGSDKIHHHHHHMNTSYLIDFLENKQVSTITKTKHSYLTYHGLEEGYTYVLKKGIVKTSIILKNGREFNLSYINSTDIVSLLRDEISAYTASPLNVRIESDEAIFYRIPRKTFWDYVNHDTHLQDYVRDYYRIKLTQNIKSLQWMTMNGKKGAVCAFIYKLIDIFGRRGATGILIDFPITNEEIANFCGISTRNSVNRIIHDLKEQHVIDIKNQKIFIYDENYLREFTI”, the “soluble on expression in E. coli” value is given as “not soluble”.

Regarding “MAGYALKRLMTEYKELTTRPPEGIIAAPIDEDNFFEWECLITGPEETCFANGVFPARITFPQDYPLSPPKMRFTCGIFHPNIYADGRVCISILHAPGDDPTGYELSNERWSPVQSIEKILLSVVSMLAEPNDESPANVSAAKMWREDRAQFEKIADSLVRKTLCLPASEV”, the “soluble on expression in E. coli” value is reported as “not soluble”.

With “MAHHHHHHVREEKLRLRKQIIEHMNSLSKERYTTLSEQIVFSLYEQKEWAEAKTIGITLSMENEVNTYPIIEKAWKEGKRVVVPKCNKETRTMSFRQISNFDQLETVYMNLREPIPALTEEVNADEIDLQIVPGVAYTERGERIGYGGGYYDRYLVHYKGKTLSLAYSFQMVEHIPVEPFDKNVEKIITEKGTMVKNGLV”, the “soluble on expression in E. coli” value is “soluble”.

For the sequence “MGSDKIHHHHHHMGAGELLQDWRVHALRIEDEVSRVVIGQPQTIRLITVALFARGHVLLEGGVGVGKTTVLRAFARVVGGEFERVEGTIDLMPGDLVYHTYVDAEGRPRIDPGPLLRHGERLTTFFFNEINRARPQVQSLLLRAMAERSVWAFDREYRFPHMTVFADRNKVEKEETFELASAARDRFLFELGMPTPTEPDVRRSLVFDAAFHDVDSLLARLPPAIVQWEQLNQVGAAIQESVQSSETIERYVLDIWQATETPQRFGIALDGVDMDRLILAGASPRGMSALLRAARVVAWLAGRSHLVPEDIHAVLMPALGHRVFFTPIYELRRQELAEALMTQIMNRLAVP”, the “soluble on expression in E. coli” value was “not soluble”.

Turning to “VLAGIDALESSGFAAVAGKRIALVTNRSGVDRLGRRTIDLLAHAPGARLVAIFAPEHGLGTDVDAPFGDAIDADTNVVVHSLYGSRRRIAPEALSNVDVLVFDIQDAGVRFFTYLATLGYVLEAAAAAHVPVVVLDRPNPLGGDVVGGPVSDADIGSFTNYYPLPLAPGMTIGELAKLFDDRLRIGADLVVVPMENYRRWMRYGDTGLGGLPPSPNLRDAAALSLYPDIGLVEGADVSVGRGTATPFGVLGAPWIDGRALADDLRAMHLSATFTPARFVPTEGPYRGALCEGVRIERLPGPVRPGRIGLAVALALHRRYPDRFRIDAIRASVGSRAVADMLADGRPLDEIEQVVDTQNAAFSRERAAYLLY”, the “soluble on expression in E. coli” value is listed as “not soluble”.

In the case of “MNSAGLEQCGMIMTRKNYYITTDGLLKRNENTLYFINKDLKRPIPINKIYSIYSYGALTISSQALNLLSKEGIPIHFFNRYGFYSGSFYPRETLLSGDVIIKQAEHVIDHDKRIELARSFVRGAALNMRRVLSYYGIENGISDTLMDLDSSNSVTDVMNVEGRIRSDYYNAIDSILPEGFRIGKRTRRPPENMTNAMISFGNSLLYSTVITELYNTQLNPTISYLHEPFERRYSLALDLSEIFKPTLIDRMIISLIKKKAIKAEDFEHGMNHCLLNNSGKRKFLAEYDRRLGKTVKHRELGRKVSYRRLIRLEAYKLIKHLIGQKSYEPFVMWW”, the “soluble on expression in E. coli” value was “not soluble”.

In the case of “AIASIPFSNTHYRIPQGFGNLLEGLTREILREQPDNIPAFAAAYFESLLEKREKTNFDPAEWGSKVEDRFYNNHAFEEQEPPEKSDPKQEESQISGKEEETSVTILDSSEEDKEKEEVAAVKIQAAFRGHIAREEAKKMKTNSLQNEEKEENK”, the “soluble on expression in E. coli” value is recorded as “soluble”.

“SKRKARRGAGMPDYETVALVLQGGGALGAYQAGVYEGLHAAGIRPNWLAGISIGGINAAIIAGAPVDERVGRLRGFWEAICRPTGFVGLPWGDAWAALFANAPFGFGSNQSNGQLAAFNALTRGQPGFFEPRFPPPYLVQGGGAAATSFYDTTPLLQTLRDYVDFDLLNRGDVRVSLGAVNVRTGNFAYFDSRETVIRPEHVMASGALPPGFPAIEIDGEFYWDGGLVSNTPLTKVLAVHPMRDTLAFQVDLWPARGPLPTSLEEVAERQKDIQYSSRTRIVTDTFRRQLKLRRSLQRVLDRLPPQVRSSRELAQIRREACTPLVNVVNLIYEANQFERHSKDYEFNTESMREHWRFGLADIERTLAQPGV”: the “soluble on expression in E. coli” value is given as “not soluble”.

Take “MGSDKIHHHHHHMIRKNHKPAFCDENPIDCHFDVKSYPAGTTVHNNDTNIIYLIFCMKGHARITSTFFHDEILCAGEVMFVPHGSEYSGVALSDVTLLVHKFNNTVCRAENCILSYLYSHKNIDSKIYCCQRRT”: the “soluble on expression in E. coli” value is recorded as “not soluble”.

In the case of “MGSDKIHHHHHHMFLMVIINPTDGMSAMSAPLDTDQLQTFIAIVDTGSFTKAAGRVFKTQSAVSMQMRRLEERIGKQLFIKDGRGNRLTAEGEKLLNYARRIVRLNSEAIAAFDDNRLEGTLRIGTPDDYADRYMPEIIGRFAKTHPNVELYIVCEPSSDLAEKMARGELDIALVTHNPATRQSDVMRTEPLCWVASANHPLRDDAPVPLAVGRRDCNWRQLACSALDADGRDYQILFTSWSSTVVAAAVLAGLAVSVLPESALRTGMKVLGQLDGFPPLPPVQIGIMKRPGMSPSLMNAITDHIAACLDNINPTAIEDDMDGETKTYSRYYPRLRAGHMIPGW”, the “soluble on expression in E. coli” value is given as “not soluble”.

For “MENKVVEEKQVDKIPLMSPCKMGKFELCHRVVLAPLTRQRSYGYIPQPHAILHYSQRSTNGGLLIGEATVISETGIGYKDVPGIWTKEQVEAWKPIVDAVHAKGGIFFCQIWHVGRVSNKDFQPNGEDPISCTDRGLTPQIMSNGIDIAHFTRPRRLTTDEIPQIVNEFRVAARNAIEAGFDGVEIHGAHGYLIDQFMKDQVNDRSDKYGGSLENRCRFALEIVEAVANEIGSDRVGIRISPFAHYNEAGDTNPTALGLYMVESLNKYDLAYCHVVEPRMKTAWEKIECTESLVPMRKAYKGTFIVAGGYDREDGNRALIEDRADLVAYGRLFISNPDLPKRFELNAPLNKYNRDTFYTSDPIVGYTDYPFLETMT”, the “soluble on expression in E. coli” value is “soluble”.
